According to publication PMC12485025:

T1: p1 NTR (Tetrahymena, UniProt Q22VV9 1-150)
T1 sequence: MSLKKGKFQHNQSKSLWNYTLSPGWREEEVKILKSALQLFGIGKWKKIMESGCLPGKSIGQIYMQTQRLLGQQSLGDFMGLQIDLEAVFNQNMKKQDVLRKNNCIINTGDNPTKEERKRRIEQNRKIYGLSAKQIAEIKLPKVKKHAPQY

B1: hmDNA 6-FAM (27ATrich_6mA_s / 27ATrich_6FAM_a) (dsDNA)
DNA 1: AACTTTCTTAACATCTTAACTTTAACT
DNA 2: AGTTAAAGTTAAGATGTTAAGAAAGTT
modifications: N6-methyl-dA at position 13 of strand 1
B2: umDNA 6-FAM (dsDNA)
DNA 1: AACTTTCTTAACATCTTAACTTTAACT
DNA 2: AGTTAAAGTTAAGATGTTAAGAAAGTT

Target: T1, p1 NTR
Experiment: fluorescence polarization

Row | Binder | Kd [nM]
1 | B1 | 35
2 | B2 | 37
